Results from the Human Domainome abundance scans (Beltran et al. 2025).
± gives the uncertainty stated by the source.

B1: Death-inducer obliterator 1, residues 263 to 321; numbered along this chain, Q9BTC0 (parent)
chain: GYDPNALYCICRQPHNNRFMICCDRCEEWFHGDCVGISEARGRLLERNGEDYICPNCTI

Variants of: B1
Assay: abundance fitness (aPCA) (normalised: wild type 0, dead -1); higher = more abundant; growth selection in yeast, the domain comes from the species named
Conditions: Homo sapiens

Abundance fitness: each site, then its substitutions
G42: Q 0.048 ± 0.13; R 0.315 ± 0.073; I 0.193 ± 0.21; C 0.065 ± 0.18; M 0.096 ± 0.067; Y 0.067 ± 0.082; P -0.151 ± 0.11; V 0.069 ± 0.072; F -0.029 ± 0.1; S -0.051 ± 0.13; L 0.062 ± 0.048; D -0.044 ± 0.12; W 0.29 ± 0.086; E 0.25 ± 0.14; H 0.245 ± 0.12; N 0.334 ± 0.17; T 0.017 ± 0.093
C57: W -0.992 ± 0.17; V -0.904 ± 0.15; M -0.989 ± 0.32; H -0.206 ± 0.18; R -0.769 ± 0.094; Q -0.842 ± 0.13; Y -0.903 ± 0.22; D -0.498 ± 0.15; G -1.12 ± 0.29; E -0.483 ± 0.13; N -0.582 ± 0.3; A -1.04 ± 0.2; P -0.828 ± 0.17; S -0.848 ± 0.12; T -0.509 ± 0.12; I -1.06 ± 0.3; L -0.705 ± 0.12
E46: S -0.064 ± 0.09; Y 0.065 ± 0.17; C 0.155 ± 0.13; K 0.079 ± 0.088; F -0.16 ± 0.1; N -0.009 ± 0.19; G -0.089 ± 0.087; H -0.663 ± 0.45; R 0.021 ± 0.066; Q -0.218 ± 0.21; W -0.265 ± 0.2; L -0.109 ± 0.083; A 0.163 ± 0.12; V 0.044 ± 0.063; I -0.265 ± 0.12; T 0.106 ± 0.11; M -0.055 ± 0.071; P -0.189 ± 0.12
I53: V -0.028 ± 0.074; M 0.269 ± 0.19; N 0.328 ± 0.22; G -0.136 ± 0.064; Q -0.03 ± 0.15; C 0.063 ± 0.11; K 0.355 ± 0.12; R -0.024 ± 0.097; Y 0.149 ± 0.21; L 0.132 ± 0.081; P -0.419 ± 0.14; A 0.059 ± 0.089; H -0.093 ± 0.13; S 0.02 ± 0.087; E 0.172 ± 0.17
R43: D -0.292 ± 0.2; G 0.103 ± 0.092; A 0.143 ± 0.15; W -0.132 ± 0.17; L 0.029 ± 0.064; Q 0.059 ± 0.14; N 0.044 ± 0.2; F -0.318 ± 0.097; K 0.057 ± 0.2; C 0.188 ± 0.13; I 0.081 ± 0.095; H 0.154 ± 0.18; M 0.017 ± 0.12; S 0.114 ± 0.059; T -0.049 ± 0.11; Y -0.044 ± 0.089; P 0.182 ± 0.078; E 0.133 ± 0.12; V -0.202 ± 0.097
A40: Y -0.094 ± 0.12; W -0.193 ± 0.07
D51: L -0.332 ± 0.09; A 0.142 ± 0.093; T -0.004 ± 0.11; G 0.088 ± 0.098; P -0.289 ± 0.38; S 0.07 ± 0.074; Q 0.135 ± 0.13; K -0.216 ± 0.34; C -0.094 ± 0.12; I -0.135 ± 0.18; E 0.029 ± 0.1; F -0.203 ± 0.25; H -0.169 ± 0.15; R 0.013 ± 0.088; Y 0.177 ± 0.1; N -0.18 ± 0.12; W -0.612 ± 0.22; M -0.367 ± 0.15
R41: N 0.24 ± 0.12; W -0.443 ± 0.16; V 0.075 ± 0.068; K -0.008 ± 0.1; G 0.037 ± 0.058; S 0.041 ± 0.085; A 0.075 ± 0.082; F -0.133 ± 0.15; M -0.05 ± 0.088; C 0.062 ± 0.08; T -0.099 ± 0.094; P 0.135 ± 0.093; Y -0.065 ± 0.17; L -0.078 ± 0.071; D 0.347 ± 0.2; I -0.157 ± 0.13; E 0.085 ± 0.11; Q -0.193 ± 0.24
G49: H 0.1 ± 0.11; E 0.283 ± 0.13; T -0.047 ± 0.1; N 0.11 ± 0.16; R -0.066 ± 0.087; Q -0.145 ± 0.22; I -0.016 ± 0.12; A 0.052 ± 0.11; Y 0.01 ± 0.26; W -0.462 ± 0.17; M -0.002 ± 0.095; K 0.163 ± 0.16; V -0.199 ± 0.2; C -0.216 ± 0.4; L -0.089 ± 0.16; D -0.299 ± 0.18; F -0.243 ± 0.17; S 0.173 ± 0.19
L44: G 0.08 ± 0.061; H 0.108 ± 0.15; Q 0.047 ± 0.081; R 0.08 ± 0.049; M 0.029 ± 0.14; K 0.048 ± 0.079; P 0.092 ± 0.06; F 0.097 ± 0.067; N 0.121 ± 0.065; I -0.238 ± 0.12; S 0.021 ± 0.056; A 0.03 ± 0.058; C -0.026 ± 0.065; W -0.015 ± 0.075; V -0.045 ± 0.062; T -0.069 ± 0.11; Y -0.028 ± 0.08; D -0.063 ± 0.085
Y52: T -0.03 ± 0.12; S -0.235 ± 0.077; R -0.227 ± 0.07; C -0.275 ± 0.44; V -0.151 ± 0.084; K -0.181 ± 0.12; M -0.598 ± 0.26
